Data from article doi:10.1101/2020.05.29.123786.
“And” between values parts separate entries of the source, which are not always exact repeats. Equal entries are not always repeated.

T1: PilQ from Pseudomonas aeruginosa (type IVa pilus secretin) (Pseudomonas aeruginosa), P34750
T1 chain: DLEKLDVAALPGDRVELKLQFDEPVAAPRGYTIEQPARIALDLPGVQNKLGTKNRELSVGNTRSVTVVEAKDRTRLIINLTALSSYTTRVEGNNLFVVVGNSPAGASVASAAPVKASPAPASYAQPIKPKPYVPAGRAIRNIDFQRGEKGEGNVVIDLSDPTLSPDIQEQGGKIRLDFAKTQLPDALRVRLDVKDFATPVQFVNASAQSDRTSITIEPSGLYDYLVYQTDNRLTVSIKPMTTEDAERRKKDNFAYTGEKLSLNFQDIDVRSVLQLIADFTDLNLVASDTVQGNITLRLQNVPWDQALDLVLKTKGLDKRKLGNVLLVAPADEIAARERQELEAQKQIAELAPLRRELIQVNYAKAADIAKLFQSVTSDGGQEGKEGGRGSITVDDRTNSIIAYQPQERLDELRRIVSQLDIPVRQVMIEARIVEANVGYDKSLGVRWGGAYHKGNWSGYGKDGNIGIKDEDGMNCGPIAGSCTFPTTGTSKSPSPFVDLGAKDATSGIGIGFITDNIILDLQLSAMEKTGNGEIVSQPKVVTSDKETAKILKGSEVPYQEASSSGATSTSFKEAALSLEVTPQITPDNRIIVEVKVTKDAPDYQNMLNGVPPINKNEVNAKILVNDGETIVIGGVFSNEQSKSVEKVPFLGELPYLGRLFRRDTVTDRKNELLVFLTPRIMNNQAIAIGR

B1: PilQ from Pseudomonas aeruginosa (type IVa pilus secretin), P34750 25-714 (natural protein)
chain: T1 chain

Assays:
Test in all cases: cryo-EM structure
[1] = target: PilQ from Pseudomonas aeruginosa (type IVa pilus secretin) (Pseudomonas aeruginosa) (UniProt P34750)
[2] = target: TsaP from Pseudomonas aeruginosa (Pseudomonas aeruginosa)
[3] = target: T1, PilQ from Pseudomonas aeruginosa (type …); details: remark: other sources report otherwise

Molecule | stoichiometry N (TsaP per PilQ) [1] | stoichiometry N [2] | stoichiometry N [3]
TsaP from Pseudomonas aeruginosa (natural protein) | 0.5 | 7 | 
B1 |  |  | 14 and 15
